Data published in patent US9889184B2 (priority 2008, dated 2018).
No end group written: not given here.

What was measured:
[1] = system: Fusarium oxysporum species; settings: cited from earlier work
Fov hyphae = experiment: Uptake of NaD1 into hyphae (immunogold EM, bimane fluorescence, immunoblot); type: cell-based, Fusarium oxysporum f. sp. vasinfectum; settings: fluorescence microscopy, live hyphae
Experimental: Fov hyphae were grown as described above prior to the addition of NaD1 (10 μM final concentration) to 1 mL of the culture. Samples (100 μL) were collected after 0, 5, 10, 30, 60, 90 and 120 min. Hyphae were collected by centrifugation (10 min, 10,000×g) and the supernatant was stored at −20° C. for analysis. Hyphae were washed (2×10 min) with KCl (0.6 M) to remove any ionically bound protein before they were resuspended in 50 mM CAPS buffer (pH 10.0) containing 10 mM DTT for 20 min. Hyphae were collected by centrifugation and the supernatant, containing cell wall proteins, was collected for analysis. The pellet (containing cells) was resuspended in water and the cells were lysed using glass beads (Sigma, 60 mg) and vortexing (3×10 min). Cellular debris was removed by centrifugation (16,000×g, 10 min) and the supernatant collected for analysis. All samples were then analyzed by SDS-PAGE and immunoblotting.
Fov hyphae were grown for 18 h in half-strength PDB (5 mL) with vigorous shaking at 25° C. from a starting spore suspension of 5×10^4/mL. Hyphae were then treated with 2 μM NaD1 or an equivalent volume of water for 2 h at RT with gentle agitation, and were washed twice in 0.6 M KCl and three times in PBS before fixation in 4% (w/v) paraformaldehyde in PBS for 1 h at 4° C. Hyphae were again washed three times in PBS before dehydration in a standard ethanol series (15 min each, 50%, 70% and 90% ethanol, 3×15 min 100% ethanol). Hyphae were then infiltrated with LR White resin (ProSciTech) for 1 h at RT, followed by 18 h at 4° C., 1 h at RT and 24 h at 60° C. Fresh LR White resin was used at each step. Ultrathin sections were cut and placed on Formvar coated gold grids.
Grids were blocked with PBS containing 8% (w/v) BSA and 1% (v/v) Triton X-100 for 1 h and labeled with α-NaD1 antibodies (2 μg/mL in blocking buffer) for 1 h. Grids were washed in blocking buffer (3×10 min) and labeled with 15 nm gold particle labeled goat α-rabbit IgG antibodies (ProSciTech diluted 1 in 20 for 1 h. Grids were washed again in blocking solution (3×10 min) followed by water (15 min) before being air-dried. A JEOL JEM2010HC x e80 KV transmission electron microscope was used to examine labeled grids. Pictures were taken on Kodak EM film (ProSciTech) and developed in a dark room before scanning on a Hewlett Packard Scanjet 5P scanner.
Hyphae grown for 18 h as described were treated with NaD1-bimane (2 μM) for between 10 min and 6 h. Hyphae were then visualized by fluorescence microscopy using an MWU filter (excitation wavelength of 330-385 nm).

[2] = system: Fusarium oxysporum f. sp. vasinfectum (Fov); experiment: Growth inhibition of Fov by NaD1 (microtitre OD595); type: cell-based
Experimental: Lyophilized NaD1 (500 μg) was dissolved in 400 μL of stock buffer (200 mM Tris-HCl pH 8.0, 2 mM EDTA, 6 M guanidine-HCl, 0.02% [v/v] Tween-20). Reduction buffer (stock buffer with 15 mM dithiothreitol [DTT]) was added (44 μL) followed by a 4.5 h incubation at 40° C. The reaction mixture was cooled to RT before iodoacetic acid (0.5 M in 1 M NaOH, 55 μL) was added and the incubation continued in the dark for 30 min at RT. A Nanosep omega (Registered) spin column (3K molecular weight cut off, PALL Life Sciences) was used to remove salts, DTT and iodoacetic acid and the protein concentration was determined using the BCA protein assay (Pierce). The effect of reduced and alkylated NaD1 (NaD1R&A) on the growth of Fusarium oxysporum (Fov) was measured as described herein.
Antifungal activity against Fusarium oxysporum f. sp. vasinfectum (Fov, Australian isolate VCG01111 isolated from cotton; from Wayne O'Neill, Farming Systems Institute, DPI, Queensland, Australia), Thielaviopsis basicola (gift from David Nehl, NSW DPI, Narrabri, Australia), Verticillium dahliae (from Helen McFadden, CSIRO Plant Industry, Black Mountain, Australia), Leptosphaeria maculans (from Barbara Howlett, University of Melbourne, Victoria, Australia) and Aspergillus nidulans (from Michael Hynes, University of Melbourne) was assessed essentially as described in Broekaert et al, 1990. Spores were isolated from sporulating cultures growing in either half-strength potato dextrose broth (PDB) (Fov and T. basicola), Czapeck-Dox Broth (V. dahliae) (Difco Laboratories) or 10% (v/v) clarified V8 medium (L. maculans and A. nidulans) by filtration through sterile muslin. Spore concentrations were determined using a hemocytometer and adjusted to 5×10^4 spores/mL in the appropriate growth medium. Spore suspensions (80 μL) were added to the wells of sterile 96-well flat-bottomed microtitre plates along with 20 μL of filter-sterilized (0.22 μm syringe filter; Millipore) NaD1, or water to give final protein concentrations of 0-10 μM. The plates were shaken briefly and placed in the dark at 25° C. without shaking until the optical density at 595 nm of the water control reached approximately 0.2 (24-72 h depending on growth rate). Hyphal growth was estimated by measuring the optical density at 595 nm using a microtitre plate reader (SpectraMax Pro M2; Molecular Devices). Each test was performed in quadruplicate.

Fusarium graminearum = type: cell-based; settings: for fungicidal activity in combination with NaD1: F. graminearum, conditions of the fungal bioassay; for fungicidal activity of the proteinase inhibitor on its own: not combined with NaD1, F. graminearum; for effect on hyphal growth: concentrations up to 18.5 uM in the absence of NaD1
cathepsin L = target: T1, cathepsin L (Homo sapiens, UniProt P07711); experiment: Cysteine proteinase inhibitory activity, ZFR-MCA substrate; type: biochemical; settings: bacterially expressed cystatin, FIG. 1E
T1 construct: purchased Sigma
Experimental: (§1) The cysteine proteinase inhibitory activity of bacterially expressed NaCys1, NaCys3 and NaCys4 was determined using the enzymes papain and cathepsin L (Sigma). The assay mixtures (final volume 250 uL) contained papain or cathepsin L (50 nM final concentration), 100 uL of ZFR-MCA substrate (0.2 mM, Bachem, Melo et al., 2001), 100 uL of reaction buffer (0.2 M sodium acetate, 4 mM EDTA, 8 mM DTT, pH 5.5) and 50 uL of cystatin (for 0-20 uM final concentration). Released fluorescence was measured at 460 nm (excitation at 340 nm) after a 10 or 50 min incubation for papain and cathepsin L, respectively, at 37° C.

papain = target: T2, papain (Carica papaya, UniProt P00784); experiment: as above; type: biochemical; settings: bacterially expressed cystatin, FIG. 1D
T2 construct: purchased Sigma
T2 sequence (P00784 134-345): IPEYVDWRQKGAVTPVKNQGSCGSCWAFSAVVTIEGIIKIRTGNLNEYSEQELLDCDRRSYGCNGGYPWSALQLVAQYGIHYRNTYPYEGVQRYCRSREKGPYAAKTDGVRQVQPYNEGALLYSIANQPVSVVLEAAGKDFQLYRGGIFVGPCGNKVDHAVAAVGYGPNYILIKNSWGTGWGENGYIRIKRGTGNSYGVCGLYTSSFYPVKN
Experimental: as §1

T1 sequence (P07711 114-333, species assumed): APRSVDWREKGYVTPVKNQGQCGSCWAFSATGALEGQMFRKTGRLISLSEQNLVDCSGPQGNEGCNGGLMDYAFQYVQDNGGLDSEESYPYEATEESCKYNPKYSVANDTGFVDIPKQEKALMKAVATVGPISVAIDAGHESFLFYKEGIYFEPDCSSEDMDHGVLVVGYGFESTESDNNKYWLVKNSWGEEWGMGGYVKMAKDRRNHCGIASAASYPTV

PhD1A: defensin isolated from petunia (Petunia hybrida) flowers (SEQ ID NO:24) (ATCKAECPTWDGICINKGPCVKCCKAQPEKFTDGHCSKILRRCLCTKPC; Petunia hybrida (PhD1A))
activity in inhibiting Fusarium oxysporum species [1]: active in inhibiting

NaD1-bimane: NaD1 labeled with the fluorophore bimane amine at carboxyl residues (RECKTESNTFPGICITKPPCRKACISEKFTDGHCSKILRRCLCTKPC; ends and bridges not checked; also: bimane amine fluorophore label at carboxyl residues (position not given here); UniProt Q8GTM0 26-72, looked up)
time at which internalization was observed (Fov hyphae): 20 to 30 min
antifungal activity of fluorophore-labeled NaD1 [2]: retained full antifungal activity

Tomdef2: defensin isolated from tomato flowers (SEQ ID NO:22) (QQICKAPSQTFPGLCFMDSSCRKYCIKEKFTGGHCSKLQRKCLCTKPC; Solanum lycopersicum var. cerasiforme (Tomdef2))
activity in inhibiting Fusarium oxysporum species [1]: active in inhibiting

NaD1 labeled with FITC: NaD1 labeled with FITC via reactive amine groups (RECKTESNTFPGICITKPPCRKACISEKFTDGHCSKILRRCLCTKPC; ends and bridges not checked; also: FITC label via reactive amine groups (position not given here); UniProt Q8GTM0 26-72, looked up)
antifungal activity of fluorophore-labeled NaD1 [2]: not biologically active

CC(C)C[C@H](NC(=O)[C@H]1O[C@@H]1C(=O)O)C(=O)NCCCCN=C(N)N [E64, reference compound]
fungicidal activity in combination with NaD1 (Fusarium graminearum): no fungicidal activity
fungicidal activity of the proteinase inhibitor on its own (Fusarium graminearum): no fungicidal activity

B1: chicken egg white cystatin: cysteine proteinase inhibitor (12.7 kDa), Sigma C8917 (protein, UniProt P01038 24-139, looked up)
Cystatin: SEDRSRLLGAPVPVDENDEGLQRALQFAMAEYNRASNDKYSSRVVRVISAKRQLVSGIKYILQVEIGRTTCPKSSGDLQSCEFHDEPEMAKYTTCTFVVYSIPWLNQIKLLESKCQ
fungicidal activity in combination with NaD1 (Fusarium graminearum): no fungicidal activity
fungicidal activity of the proteinase inhibitor on its own (Fusarium graminearum): no fungicidal activity

B2: PhD2: plant defensin from Petunia hybrida, accession Q8H6Q0 (protein)
chain: MARSICFFAVAILALMLFAAYETEAGTCKAECPTWEGICINKAPCVKCCKAQPEKFTDGHCSKILRRCLCTKPCATEEATATLANEVKTMAEALVEEDMME
modifications: Petunia hybrida (PhD2Full length)
activity in inhibiting Fusarium oxysporum species [1]: active in inhibiting

B3: NaCys1: cystatin from Nicotiana alata, bacterially expressed (SEQ ID NO:2) (protein)
chain: MATLGGIREAGGSENSLEINDLARFAVDEHNKKQNALLEFGKVVNVKEQVVAGTMYYITLEATEGGKKKAYEAKVWVKPWQNFKQLEDFKLIGDAASA
modifications: Nicotiana alata (NaCys1)
effect on hyphal growth (Fusarium graminearum): no effect on hyphal growth
inhibition of Cathepsin L (cathepsin L): better inhibitors of Cathepsin L than NaCys4
inhibition of the cysteine proteinase papain (papain): strong inhibitors

B4: NaCys3: cystatin from Nicotiana alata, bacterially expressed (SEQ ID NO:6) (protein)
chain: MANLGGIREAGGSENSLEINDLARFAVDEHNKKQNALLEFGKVVNVKEQVVAGTMYYITLEATEGGKKKAYEAKVWVKPWQNFKQLEDFKLIGDAASA
modifications: Nicotiana alata (NaCys3)
effect on hyphal growth (Fusarium graminearum): no effect on hyphal growth
inhibition of Cathepsin L (cathepsin L): better inhibitors of Cathepsin L than NaCys4
inhibition of the cysteine proteinase papain (papain): strong inhibitors

B5: NaCys4: cystatin from Nicotiana alata (SEQ ID NO:8), tryptophan to arginine substitution at position 80 (protein)
chain: MANLGGIREAGGSENSLEINDLARFAVDEHNKKQNALLEFGKVVNVKEQVVAGTMYYITLEATEGGKKKAYEAKVWVKPRQNFKQLEDFKLIGDAASA
modifications: Nicotiana alata (NaCys4)
inhibition of the cysteine proteinase papain (papain): relatively poor inhibitor

B6: Soybean trypsin inhibitor Type II-S: serine proteinase inhibitor (21 kDa), Sigma T9128 (protein, UniProt P01070 25-205, looked up)
Trypsin inhibitor A: DFVLDNEGNPLENGGTYYILSDITAFGGIRAAPTGNERCPLTVVQSRNELDKGIGTIISSPYRIRFIAEGHPLSLKFDSFAVIMLCVGIPTEWSVVEDLPEGPAVKIGENKDAMDGWFRLERVSDDEFNNYKLVFCPQQAEDDKCGDIGISIDHDDGTRRLVVSKNKPLVVQFQKLDKESL
fungicidal activity in combination with NaD1 (Fusarium graminearum): no fungicidal activity
fungicidal activity of the proteinase inhibitor on its own (Fusarium graminearum): no fungicidal activity
